Drawing on the Human Domainome abundance scans (Beltran et al. 2025), this text covers abundance fitness for 167 variants.

± gives the uncertainty stated by the source.

B1: Steroid hormone receptor ERR2, residues 100 to 176; numbered along this chain, O95718 (parent)
chain: KRLCLVCGDIASGYHYGVASCEACKAFFKRTIQGNIEYSCPATNECEITKRRRKSCQACRFMKCLKVGMLKEGVRLD
B2: Transcriptional regulator ERG, residues 117 to 197; numbered along this chain, P11308 (parent)
chain: NMTTNERRVIVPADPTLWSTDHVRQWLEWAVKEYGLPDVNILLFQNIDGKELCKMTKDDFQRLTPSYNADILLSHLHYLRE

One series covers variants of B1. In words: abundance fitness (aPCA) (normalised: wild type 0, dead -1); higher = more abundant; growth selection in yeast, the domain comes from the species named. Conditions: Homo sapiens.
In the case of G13V, the abundance fitness is -0.38 ± 0.09.

As to G13K, the abundance fitness was -0.336 ± 0.23.

Consider G13W, for which the abundance fitness was -0.64 ± 0.31.

As to E45A, the abundance fitness is -0.172 ± 0.051.

On to E45H, for which the abundance fitness was -0.143 ± 0.1.

For the variant E45P, the abundance fitness was -0.637 ± 0.15.

Consider E45Q, for which the abundance fitness turned out to be 0.055 ± 0.059.

On to K25S, for which the abundance fitness is 0.222 ± 0.04.

Regarding K25M, the abundance fitness was 0.286 ± 0.048.

For K25C, the abundance fitness stood at 0.284 ± 0.051.

Regarding K25G, the abundance fitness turned out to be 0.41 ± 0.029.

Regarding V67N, the abundance fitness is -0.538 ± 0.24.

With V67I, the abundance fitness is -0.323 ± 0.14.

V67T: the abundance fitness is -0.262 ± 0.079.

For the variant V67Q, the abundance fitness is -0.439 ± 0.09.

For the variant V67S, the abundance fitness is -0.073 ± 0.054.

On to V67A, for which the abundance fitness is -0.121 ± 0.055.

On to V67M, for which the abundance fitness is -0.061 ± 0.069.

Turning to V67C, the abundance fitness is -0.027 ± 0.074.

With L76S, the abundance fitness was -0.07 ± 0.062.

On to L76N, for which the abundance fitness turned out to be 0.056 ± 0.12.

Consider L76T, for which the abundance fitness was -0.024 ± 0.083.

As for S39M, the abundance fitness amounted to 0.39 ± 0.048.

For the variant S39K, the abundance fitness was 0.305 ± 0.051.

Consider S39N, for which the abundance fitness amounted to 0.397 ± 0.1.

For the variant S39I, the abundance fitness worked out at 0.19 ± 0.086.

Consider S39F, for which the abundance fitness is 0.374 ± 0.1.

In the case of S39W, the abundance fitness worked out at 0.22 ± 0.047.

As to S39D, the abundance fitness worked out at 0.441 ± 0.076.

Consider T43L, for which the abundance fitness was -0.234 ± 0.05.

On to T43H, for which the abundance fitness was -0.459 ± 0.15.

In the case of T43C, the abundance fitness is -0.651 ± 0.11.

In the case of T43E, the abundance fitness amounted to 0.042 ± 0.053.

T43K: the abundance fitness was determined as 0.212 ± 0.051.

For the variant V18E, the abundance fitness is -0.399 ± 0.14.

As for Y38C, the abundance fitness is -0.293 ± 0.1.

With Y38I, the abundance fitness was -0.421 ± 0.36.

Turning to Y38Q, the abundance fitness was -0.841 ± 0.16.

On to Y38E, for which the abundance fitness is -0.586 ± 0.11.

Consider Y38D, for which the abundance fitness is -0.979 ± 0.37.

On to Y38H, for which the abundance fitness was -0.196 ± 0.17.

Take Y38T: the abundance fitness was -0.636 ± 0.13.

For the variant Y38A, the abundance fitness was -0.554 ± 0.085.

As to Y38F, the abundance fitness was -0.037 ± 0.13.

Consider L3N, for which the abundance fitness turned out to be 0.179 ± 0.07.

On to L3R, for which the abundance fitness is -0.152 ± 0.042.

L3H: the abundance fitness was determined as 0.133 ± 0.072.

Regarding L3G, the abundance fitness is -0.118 ± 0.041.

L3I: the abundance fitness is 0.319 ± 0.087.

On to L3T, for which the abundance fitness is -0.025 ± 0.054.

Consider N35C, for which the abundance fitness is -0.12 ± 0.073.

With N35T, the abundance fitness was -0.017 ± 0.056.

With N35H, the abundance fitness amounted to 0.031 ± 0.094.

Turning to N35W, the abundance fitness is -0.298 ± 0.057.

With N35D, the abundance fitness turned out to be 0.111 ± 0.079.

Turning to N35V, the abundance fitness is -0.133 ± 0.045.

As for I48V, the abundance fitness is 0.007 ± 0.064.

I48C: the abundance fitness was -0.312 ± 0.14.

Turning to I48T, the abundance fitness was -0.159 ± 0.075.

For A11C, the abundance fitness is -0.177 ± 0.092.

With A11R, the abundance fitness is -0.516 ± 0.067.

For A11D, the abundance fitness was -0.241 ± 0.1.

On to A11T, for which the abundance fitness was -0.321 ± 0.091.

For the variant C56T, the abundance fitness is -0.691 ± 0.14.

V6G: the abundance fitness was -0.768 ± 0.087.

Consider V6W, for which the abundance fitness is -0.751 ± 0.14.

Regarding V6C, the abundance fitness is -0.684 ± 0.14.

For the variant V6P, the abundance fitness is -0.978 ± 0.21.

As for V6S, the abundance fitness was -0.713 ± 0.1.

In the case of V6A, the abundance fitness was -0.497 ± 0.078.

Regarding K29V, the abundance fitness worked out at 0.079 ± 0.038.

For K29I, the abundance fitness is -0.481 ± 0.12.

For the variant K29N, the abundance fitness was -0.193 ± 0.11.

With K63D, the abundance fitness was -0.783 ± 0.17.

Take Y14C: the abundance fitness was 0.068 ± 0.079.

With Y14L, the abundance fitness was found to be 0.04 ± 0.047.

For Y14R, the abundance fitness was -0.446 ± 0.075.

For Y14S, the abundance fitness is -0.111 ± 0.055.

For S12I, the abundance fitness is -0.327 ± 0.14.

Regarding S12G, the abundance fitness is -0.023 ± 0.048.

Take N44K: the abundance fitness is 0.007 ± 0.054.

On to N44F, for which the abundance fitness is 0.068 ± 0.14.

In the case of N44Q, the abundance fitness was -0.013 ± 0.059.

Turning to N44P, the abundance fitness was -0.741 ± 0.14.

For N44E, the abundance fitness turned out to be 0.022 ± 0.048.

Take N44W: the abundance fitness was -0.269 ± 0.058.

Turning to D77M, the abundance fitness was -0.35 ± 0.14.

On to D77N, for which the abundance fitness was -0.166 ± 0.11.

With D77T, the abundance fitness was -0.04 ± 0.095.

For the variant D77C, the abundance fitness was -0.348 ± 0.18.

For the variant C59Y, the abundance fitness is -0.745 ± 0.27.

On to C59D, for which the abundance fitness was -0.513 ± 0.2.

In the case of C59K, the abundance fitness was -0.483 ± 0.12.

For the variant C59V, the abundance fitness is -0.576 ± 0.066.

On to Q57D, for which the abundance fitness is -0.042 ± 0.062.

Q57K: the abundance fitness is -0.118 ± 0.067.

As to Q57L, the abundance fitness was -0.232 ± 0.046.

Consider Q57P, for which the abundance fitness was -0.066 ± 0.064.

Turning to Q57T, the abundance fitness was -0.325 ± 0.067.

With Q57V, the abundance fitness was -0.213 ± 0.045.

For the variant R51C, the abundance fitness is -0.803 ± 0.32.

Consider R51A, for which the abundance fitness came to 0.002 ± 0.072.

In the case of R51F, the abundance fitness is -0.161 ± 0.096.

Take R51D: the abundance fitness is -0.084 ± 0.13.

As to R51Y, the abundance fitness is -0.384 ± 0.13.

With P41C, the abundance fitness is -0.045 ± 0.057.

On to P41T, for which the abundance fitness is -0.147 ± 0.063.

With V74A, the abundance fitness stood at 0.126 ± 0.05.

With C7P, the abundance fitness was -0.673 ± 0.14.

As to C7Y, the abundance fitness is -0.993 ± 0.32.

For the variant C7E, the abundance fitness is -0.874 ± 0.13.

Consider R52C, for which the abundance fitness was -0.86 ± 0.38.

Turning to R52Y, the abundance fitness is -0.452 ± 0.21.

As to R52D, the abundance fitness is -0.242 ± 0.23.

For the variant G34F, the abundance fitness was found to be 0.144 ± 0.072.

As for G34V, the abundance fitness is -0.186 ± 0.046.

For F27R, the abundance fitness is -0.715 ± 0.061.

Turning to F27H, the abundance fitness is -0.765 ± 0.22.

As for F27A, the abundance fitness was -0.621 ± 0.071.

Consider F27Q, for which the abundance fitness was -0.945 ± 0.13.

Consider F27G, for which the abundance fitness was -0.745 ± 0.06.

With F27W, the abundance fitness is -0.578 ± 0.068.

For F27K, the abundance fitness is -0.506 ± 0.077.

For the variant E22K, the abundance fitness is -0.443 ± 0.091.

As to G17W, the abundance fitness is -0.359 ± 0.075.

For the variant G17V, the abundance fitness was -0.413 ± 0.055.

For the variant G17L, the abundance fitness was -0.601 ± 0.068.

For the variant A26L, the abundance fitness was -0.135 ± 0.043.

Regarding A26G, the abundance fitness was found to be 0.121 ± 0.036.

For the variant A26H, the abundance fitness is 0.095 ± 0.089.

The variants in another series derive from B2. Described as above. The conditions noted are these: Homo sapiens.
For the variant N1S, the abundance fitness is -0.097 ± 0.066.

Regarding N1H, the abundance fitness was -0.279 ± 0.085.

With N1Y, the abundance fitness was found to be 0.029 ± 0.069.

N1M: the abundance fitness is -0.087 ± 0.071.

Take N1K: the abundance fitness is -0.114 ± 0.09.

Consider N1F, for which the abundance fitness was 0.012 ± 0.076.

With N1D, the abundance fitness was -0.071 ± 0.081.

N1T: the abundance fitness was 0.002 ± 0.072.

As to N1Q, the abundance fitness is -0.011 ± 0.17.

For N1W, the abundance fitness was -0.168 ± 0.081.

Take N1G: the abundance fitness is -0.154 ± 0.078.

N1A: the abundance fitness is -0.144 ± 0.092.

As to N1E, the abundance fitness is -0.038 ± 0.12.

As to N1R, the abundance fitness was -0.054 ± 0.072.

On to N1I, for which the abundance fitness was determined as 0.007 ± 0.081.

In the case of N1C, the abundance fitness is -0.057 ± 0.068.

For M2A, the abundance fitness was -0.296 ± 0.057.

As for M2S, the abundance fitness was -0.105 ± 0.051.

For M2D, the abundance fitness was -0.195 ± 0.11.

On to M2G, for which the abundance fitness was -0.337 ± 0.044.

For M2Y, the abundance fitness is -0.139 ± 0.11.

As to M2L, the abundance fitness is -0.042 ± 0.053.

Turning to M2W, the abundance fitness is -0.17 ± 0.053.

Take M2K: the abundance fitness was -0.144 ± 0.059.

Take M2H: the abundance fitness was -0.046 ± 0.095.

M2F: the abundance fitness was -0.048 ± 0.084.

In the case of M2E, the abundance fitness was -0.213 ± 0.058.

For M2N, the abundance fitness was -0.028 ± 0.075.

Turning to M2R, the abundance fitness is -0.049 ± 0.037.

In the case of M2V, the abundance fitness is -0.417 ± 0.054.

With M2Q, the abundance fitness turned out to be 0.037 ± 0.07.

M2T: the abundance fitness was -0.033 ± 0.051.

As for M2I, the abundance fitness was -0.143 ± 0.084.

On to M2P, for which the abundance fitness is 0.004 ± 0.07.

M2C: the abundance fitness is -0.166 ± 0.086.

Consider T3C, for which the abundance fitness is -0.088 ± 0.066.

In the case of T3A, the abundance fitness was -0.043 ± 0.039.
